Results taken from US10350264B2, “Compositions and methods for modulating NCOA4-mediated autophagic targeting of ferritin” (Dana-Farber Cancer Institute, Inc., priority 2014, dated 2019).
Entries after “also recorded” stand apart in the source; their conditions may differ.

T1: NCOA4(aa 383-522)-GST (Homo sapiens, UniProt Q13772)
T1 construct: NCOA4(aa 383-522)-GST or GST alone was incubated with; made in house; host or cells: E. coli BL21 (DE3)
T1 sequence (Q13772 383-522): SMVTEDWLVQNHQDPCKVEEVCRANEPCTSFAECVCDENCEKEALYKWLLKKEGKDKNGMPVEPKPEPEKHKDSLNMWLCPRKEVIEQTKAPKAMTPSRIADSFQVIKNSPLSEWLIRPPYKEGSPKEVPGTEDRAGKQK

T2: HERC2-FLAG fragment (F3, HERC2 amino acids 1700-2700) (Homo sapiens, UniProt O95714)
T2 construct: HERC2-FLAG fragment (F3, HERC2 amino acids 1700-2700) was produced as described in Bekker-Jensen et al; expressed in transfected cells; host or cells: 293T cells (transient transfection, lysate used)
T2 sequence (O95714 1700-2700): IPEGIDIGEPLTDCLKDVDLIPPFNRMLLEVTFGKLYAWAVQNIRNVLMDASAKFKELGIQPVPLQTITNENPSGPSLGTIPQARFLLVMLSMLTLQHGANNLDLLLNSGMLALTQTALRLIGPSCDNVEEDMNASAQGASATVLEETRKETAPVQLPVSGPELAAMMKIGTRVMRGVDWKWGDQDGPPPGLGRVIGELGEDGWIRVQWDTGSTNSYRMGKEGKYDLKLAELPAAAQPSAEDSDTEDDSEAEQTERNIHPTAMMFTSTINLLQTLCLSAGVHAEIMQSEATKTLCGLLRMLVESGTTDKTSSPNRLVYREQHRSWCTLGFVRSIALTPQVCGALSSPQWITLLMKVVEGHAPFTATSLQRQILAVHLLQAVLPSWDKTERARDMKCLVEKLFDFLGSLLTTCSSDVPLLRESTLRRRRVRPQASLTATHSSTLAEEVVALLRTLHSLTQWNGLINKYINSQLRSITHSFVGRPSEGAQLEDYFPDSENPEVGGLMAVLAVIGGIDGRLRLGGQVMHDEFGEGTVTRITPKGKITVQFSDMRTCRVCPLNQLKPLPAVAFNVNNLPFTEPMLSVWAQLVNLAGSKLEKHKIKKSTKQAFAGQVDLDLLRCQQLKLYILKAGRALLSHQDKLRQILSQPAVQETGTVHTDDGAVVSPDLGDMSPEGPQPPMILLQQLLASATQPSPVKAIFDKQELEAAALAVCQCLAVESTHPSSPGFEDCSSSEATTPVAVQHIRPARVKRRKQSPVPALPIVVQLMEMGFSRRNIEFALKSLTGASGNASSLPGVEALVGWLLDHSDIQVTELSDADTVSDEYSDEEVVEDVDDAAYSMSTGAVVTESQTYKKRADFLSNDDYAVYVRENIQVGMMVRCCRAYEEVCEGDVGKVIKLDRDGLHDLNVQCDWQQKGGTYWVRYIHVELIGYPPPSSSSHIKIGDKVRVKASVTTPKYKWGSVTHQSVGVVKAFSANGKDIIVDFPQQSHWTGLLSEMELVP


Assays:
8988T and U2OS cells = assay: chelation assay, ferritin degradation by FTH1 immunoblot; type: cell-based, human; settings: FAC loading then chelators (DFO, BPS, DFP); FIG. 3(a)-(b), FIG. 19
Method: Chelation assays were performed similarly to those previously described with slight modifications [Asano et al., supra]. Briefly, U2OS and 8988T cells stably expressing shRNAs as described above (shGFP, shNCOA4-1, shNCOA4-2, selected with puromycin) were plated (2×10^5 cells/well) and cultured for 24 hours in FAC (36 μM or 180 μM). Cells were washed three times with PBS and subjected to iron chelation with the described chelators minus or plus lysosomal protease inhibitors (E-64d and PepstatinA) or the proteasomal inhibitor, Bortezomib. Cells were harvested at the indicated time points, washed with PBS, and lysed in 50 mM Tris-HCl (pH 7.4), 150 mM NaCl, 1% Nonidet P40, 0.1% SDS, 2 mM EDTA, 2 mM DTT, protease inhibitors and analyzed by 4-20% gradient SDS-PAGE followed by immunoblotting with the indicated antibodies. Experiments were performed at a minimum in biological triplicate. Quantitation of Western blots was performed using ImageJ [Schneider, C. A., et al. Nature Methods 9, 671-675 (2012)]. Cells were treated similarly for immunofluorescence experiments (including IMR90 and HPDE cells). Cells plated on glass coverslips were treated as described and fixed with 4% paraformaldehyde prior to immunofluorescence using anti-ferritin and anti-LAMP2. Data were collected as described above.

8988T cells = assay: NCOA4 protein levels while blocking autophagic flux (immunoblot); type: cell-based, human; settings: CQ or BAF 8 hours, FIG. 2(c)
PANC1 cells = assay: autophagosome formation, fluorescence microscopy of cells expressing GFP-MAP1LC3B; type: cell-based, human; settings: Wortmannin 200 nM 1 h, chloroquine 25 μM 4 h, FIG. 13(b)
NCOA4(aa 383-522)-GST = target: T1, NCOA4(aa 383-522)-GST; assay: GST pull-down assay of WT and point mutant FTH1 using NCOA4(aa 383-522)-GST; type: binding; settings: 40 μg FTH1, InstantBlue stain; FIGS. 23A-D
[1] = target: T3, apo-ferritin purified from equine spleen (Equus caballus, UniProt Q8MIP0); assay: GST pull-down assay of ferritin using GST-NCOA4 fragments; type: binding; settings: anti-FTH1 immunoblot
T3 construct: apo-ferritin purified from equine spleen; purchased Sigma F4503; host or cells: equine spleen
Source text: GST-tagged NCOA4 constructs were also made to probe the interactions of C-terminal portions of NCOA4 with ferritin. NCOA4-truncation constructs were produced using Gateway cloning (Invitrogen, Life Technologies, catalog #11789-013 and 11791-019) into a pDEST60 N-terminal GST fusion plasmid (GST-NCOA4) from EMD Millipore (Gateway Nova pET-60-DEST, product #71851-3) and transformed in E. coli BL21 (DE3) cells (New England Biosciences, C2527I).
NCOA4 truncation constructs were designed based on NCBI reference sequence: NP_001138735.1 (SEQ ID NO: 4). In particular, fragments of SEQ ID NO: 4 consisting of amino acids (aa) 1-245, aa 235-614, aa 235-560, aa 235-401, aa 383-560, aa 545-614, aa 383-522, aa 510-560, aa 383-436, aa 436-485, aa 475-522, aa 475-500, aa 480-500, aa 480-504, aa 485-509, aa 490-514, aa 495-522 were designed. Protein expression in the DE3 cells was induced with 1 mM isopropyl-beta-D-thiogalactopyranoside (IPTG) (Sigma, I6758-10 G) for 3 hours at 37° C. Cells were collected by centrifugation, re-suspended in 25 mM Tris-HCl (pH 7.4), 10% (w/v) sucrose and lysed with a single freeze-thaw cycle followed by sonication. After centrifugation, a GST pull-down assay was performed.
In the GST pull-down assay, lysates were incubated with 10 μl of a 50% (v/v) slurry of glutathione Sepharose 4B beads (GE Healthcare Lifesciences, 17-0756-01) for 30 minutes at 4° C. Beads were washed thoroughly with 150 mM NaCl, 20 mM Tris (pH 7.4), 2 mM dithiothreitol (DTT), 0.5% (w/v) Nonidet P-40, leaving 50-100 μg of GST-fusion protein bound to the beads. Beads were then mixed with 0.5-2 μg of apo-ferritin purified from equine spleen (Sigma F4503) or recombinant human FTH1 or FTL produced in Rosetta E. coli (EMD Millipore, 70953-3). The assay mix was incubated for 2 hours at 4° C., and beads were washed four times with 1 ml wash buffer. Proteins were eluted with SDS sample buffer and analyzed by 4-20% gradient SDS-PAGE and immunoblotting with anti-FTH1 antibody (as above) or anti-FLAG antibody (Sigma, F1804-200 UG). Pounceau stain was used to visualize GST-NCOA4 bands. (Pounceau, Sigma, P7170-1 L, protocol as per product manual).

FTH1 = assay: IVT-based interaction experiment with His-GST-HA tagged NCOA4 constructs and GST pull-down; type: binding; settings: equal load of fragments; FIG. 9
[2] = target: T2, HERC2-FLAG fragment (F3, HERC2 amino acids 1700-2700); assay: GST pull-down assay of HERC2-FLAG Fragment 3 using GST-NCOA4 fragments; type: binding; settings: 293T lysate expressing HERC2-FLAG F3, anti-FLAG immunoblot; FIG. 12
Method: To map the interaction of NCOA-4 with HERC2, the GST-NCOA4 truncation constructs described above were also tested in a GST pull-down assay with HERC2-FLAG expressing 293T cell line. HERC2-FLAG fragment (F3, HERC2 amino acids 1700-2700) was produced as described in Bekker-Jensen et al., Nature Cell Biology (2010) 12; 80-86. The HERC2-FLAG F3 was transiently transfected into 293T cells using standard transfection procedures using PEI (Polysciences, #23966-2).
Lysates were obtained, as above, and incubated with 10 μl of a 50% (v/v) slurry of glutathione Sepharose 4B beads for 30 minutes at 4° C. Beads were washed thoroughly with 150 mM NaCl, 20 mM Tris (pH 7.4), 2 mM DTT, 0.5% (w/v) Nonidet P-40, leaving 50-100 μg of GST-fusion protein bound to the beads. Beads were then mixed with 300 μg of lysate from a HERC2-FLAG expressing 293T cell line, as above. The assay mix was incubated for 2 hours at 4° C., and beads were washed four times with 1 ml wash buffer. Proteins were eluted with SDS sample buffer and analyzed by 4-20% gradient SDS-PAGE and immunoblotting with anti-HERC2 antibody or anti-FLAG antibody, as above. Coomassie stain was used to visualize GST-NCOA4 bands as above.

T3 sequence (Q8MIP0 whole entry, the tested form may be a part): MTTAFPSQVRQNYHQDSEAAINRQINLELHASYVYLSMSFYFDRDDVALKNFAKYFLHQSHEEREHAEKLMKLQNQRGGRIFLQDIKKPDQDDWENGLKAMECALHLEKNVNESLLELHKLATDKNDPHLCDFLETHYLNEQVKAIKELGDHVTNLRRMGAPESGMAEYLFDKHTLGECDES
T3 sequence (P02791 2-175 partner limits assumed): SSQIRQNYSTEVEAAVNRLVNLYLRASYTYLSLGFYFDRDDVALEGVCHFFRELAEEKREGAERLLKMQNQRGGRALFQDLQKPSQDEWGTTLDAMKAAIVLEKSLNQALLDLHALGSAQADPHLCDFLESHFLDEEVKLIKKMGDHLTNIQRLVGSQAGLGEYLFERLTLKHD

Molecule	ferritin degradation in response to iron chelation (8988T and U2OS cells)	binding of GST-NCOA4 fragment to ferritin ([1]; FIGS. 7, 8, 11)	pull-down of FTH1 by IVT GST-NCOA4 fragment (FTH1)	further results
5′ CCCAGGAAGTATTACTTAATT 3′ (expressed or natural sequence) [shNCOA4-1]	rescued ferritin degradation			
5′ GCTGGCAAACAGAAGTTTAAA 3′ (expressed or natural sequence) [shNCOA4-2]	rescued ferritin degradation			
CCN(CC)CCCC(C)Nc1ccnc2cc(Cl)ccc12 (centres unmarked) [chloroquine, Chloroquine]				NCOA4 protein levels (8988T cells): markedly increased; effect on autophagosomes (PANC1 cells): caused accumulation of autophagosomes
FTH1 R23A point mutant: recombinant human ferritin heavy chain with R23A point mutation, produced in E. coli				binding of FTH1 (WT or point mutant) to NCOA4(383-522)-GST (NCOA4(aa 383-522)-GST): bound only very weakly
KAMTPSRIADSFQVIKNSPLSEWLIRPPYKEGSPKEVPGTEDRAGKQK (Homo sapien) [aa 475-522]		interacted with ferritin; also recorded: bound to ferritin	equally pulled down (bound to) FTH1	binding of GST-NCOA4 fragment to ferritin ([1]; FIGS. 7, 8, 11, listed as amino acids 475-522): bind to ferritin
aa 383-522: fragment of NCOA4 SEQ ID NO: 4 (protein, GST tag; Homo sapien) SMVTEDWLVQNHQDPCKVEEVCRANEPCTSFAECVCDENCEKEALYKWLLKKEGKDKNGMPVEPKPEPEKHKDSLNMWLCPRKEVIEQTKAPKAMTPSRIADSFQVIKNSPLSEWLIRPPYKEGSPKEVPGTEDRAGKQK		bind to ferritin	equally pulled down (bound to) FTH1	binding of GST-NCOA4 fragment to HERC2-FLAG [2]: bound to HERC2-FLAG
